Source: publication PMC2175353
Like-named read-outs stand apart in the source and are kept apart here.

B1: MBS3wt (Myb site 3, lysozyme -2.7 kb enhancer) (dsDNA)
DNA 1: GGCTGGGAATATTTCTGTTTGACCACCATGGAG
DNA 2: CTCCATGGTGGTCAAACAGAAATATTCCCAGCC
B2: mimA (mim-1 promoter Myb site A) (dsDNA)
DNA 1: GCTCTAAAAAACCGTTATAATGTACAGATATCTT
DNA 2: AAGATATCTGTACATTATAACGGTTTTTTAGAGC

Tests used:
[1] = target: T1, v-Myb AMV (bacterial, pVM2028) (avian myeloblastosis virus (AMV), UniProt P01104 1-382); assay: EMSA
T1 sequence (P01104 whole entry): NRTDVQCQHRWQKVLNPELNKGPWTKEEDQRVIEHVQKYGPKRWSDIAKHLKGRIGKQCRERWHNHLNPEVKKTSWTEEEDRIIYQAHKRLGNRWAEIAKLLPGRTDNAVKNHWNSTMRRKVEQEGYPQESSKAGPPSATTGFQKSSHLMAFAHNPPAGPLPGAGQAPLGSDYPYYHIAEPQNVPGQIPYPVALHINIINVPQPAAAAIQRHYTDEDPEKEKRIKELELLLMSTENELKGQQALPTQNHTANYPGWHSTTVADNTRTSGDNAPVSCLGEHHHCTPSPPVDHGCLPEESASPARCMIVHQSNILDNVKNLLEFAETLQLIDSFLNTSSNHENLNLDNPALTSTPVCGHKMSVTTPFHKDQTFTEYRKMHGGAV

[2] = target: T1, v-Myb AMV (bacterial, pVM2028); assay: EMSA; remark: listed apart in the source

| Binder | binding result [1] | binding result [2] |
| --- | --- | --- |
| B1 | no binding |  |
| B2 |  | binds |
